Measured values from patent publication US8030017B2, “Thermostable luciferases and methods of production” (Promega Corporation, priority 1997, dated 2011).
Changes are numbered by the printed parent chain. Names may count otherwise.

Columns and labels:
[1] = Stability of luciferase activity in cell lysates at room temperature (with Triton X-100); type: physicochemical; details: over 5 hours at room temperature
Protocol: Although the luminescence activity of LucPpl within colonies of E. coli appeared to be thermostable to above 60° C., in lysates these luciferases had relatively low stability. They were particularly unstable in the presence of Triton X-100 detergent. When lysates are prepared containing the commonly used firefly luciferase, the enzyme retains greater than 90% activity over 5 hours at room temperature. In contrast, the activity of the LucPpl luciferases would decrease several fold over the same period.
The thermostability of the mutant luciferases in cell lysates was compared at room temperature (FIG. 63). Dilute lysates were buffered at pH 7.5 and contained 1% Triton X-100; typical conditions for lysates of mammalian cells.

[2] = Thermostability (half-life, retained activity) of luciferases incubated in aqueous solution at different temperatures; type: physicochemical; details: purified enzyme
From the text: As defined herein, a “thermostable” enzyme, e.g., a luciferase, or an enzyme which has “thermostability”, is an enzyme which under certain conditions, e.g., at certain temperature, in aqueous solution and/or for certain periods of time, has an increased retention of activity relative to a reference enzyme. For example, for a thermostable luciferase, a reference luciferase may be native wild-type luciferase or recombinant wild-type luciferase. Preferably, for beetle luciferases, the activity is luminescence under conditions of saturation with luciferin and ATP. One measure of thermostability of an enzyme is the half-life of the enzyme in an aqueous solution (the time over which 50% of the activity is lost) at a stated temperature.
(§1) Protein purification: Four mutants that are described herein (Luc[T249M], Luc49-7C6, Luc78-0B10, and Luc90-1B5) were purified using a previously published procedure (Hastings et al., 1996).
[…] Enzyme stability was determined from diluted proteins incubated at different temperatures, and aliquots were removed at different time points. A linear regression of the natural log of the luminescence and time was calculated. Half-life was calculated as the 1n(0.5)/slope of the regression.

[3] = Michaelis-Menten constant for luciferin of purified mutants; type: biochemical; details: purified enzyme
From the text: (§2) Substrate binding was screened by measuring an apparent composite Km (see Example 2) for luciferin and ATP. […] The Km for luciferin rose while the Km for ATP declined (Table 3). The reason for this change is unknown, although it can be speculated that more efficient release of oxyluciferin or luciferin inhibitors could lead to more rapid enzyme turnover.
as §1

[4] = Michaelis-Menten constant for ATP of purified mutants; type: biochemical; details: purified enzyme
From the text: as §2, §1

[5] = system: colonies of E. coli; test: In vivo luminescence of recombinant colonies of E. coli (visual screen); type: cell-based
From the text: Five to seven nitrocellulose disks having 200-500 colonies per disk (1000-3500 colonies total) are screened per 2 microplates (176 clones) (Wood and DeLuca, 1987). The clones are screened at high temperatures using standard screening conditions.
Screening method: In the qualitative visual screen, colonies were selected only for their ability to sustain relatively bright luminescence. The thermal stability of the luciferase within the colonies of E. coli was progressively challenged in successive rounds of evolution by increasing the temperature of the screen. The selected colonies were inoculated into wells of 96-well plates each containing 200 μl of growth medium.
JM109 clones (from a transformation reaction) are plated onto nitrocellulose filters placed on LB amp plates at a screening density of about 500 colonies per plate.
The nitrocellulose filter is lifted on one side and 500 μl of 10 mM IPTG is added to each of the plates. The filter is then placed back onto the plate to allow diffusion of the IPTG into the colonies containing the different mutant luciferase genes. The plates are then incubated for about 4 hours at room temperature.
One (1) ml of a solution contains 1 mM luciferin and 100 mM sodium citrate is pipetted onto a slide warmer that is set at 50° C. […]

[6] = Retention of luminescence activity at pH 4.5 and 48° C.; type: physicochemical; details: for thermostability relative to Luc90-1B5: pH 4.5 and 48° C.; for half-life: pH 4.5 and 48° C. (FIG. 54B)
Protocol: Three populations of random mutants were produced using clone Luc90-1B5 as a template. These three populations were screened on the robot as experiments 114, 115, and 117. […] These screening conditions were biased to select clones that have increased retention of luminescence activity over time at pH 4.5 at 48° C. and increased luminescence activity when assayed at pH 7.1 with 10 μM ATP. Seventeen clones from experiment 114, seven clones from experiment 115, and ten clones from experiment 116 were shuffled together using sPCR and selected mutants from this screen were run on the robot as experiment 117. Eighteen clones were selected from experiment 117.

[7] = Assay to detect resistance to luciferase inhibitor (luciferin breakdown products); type: biochemical; details: luciferin degradation products (FIG. 61)
Protocol: A 10 mM stock solution of luciferin is incubated at 50° C. in 50 mM HEPES, pH 7.8, to accelerate the production of luciferin breakdown products. At different time points an aliquot is removed and then placed at −20° C. After incubation is complete, assay reagent (100 μM Luciferin, 1 μM ATP, 50 mM HEPES, pH 7.8 and 8 mM MgSO4) is prepared with luciferin from each of the different time points and a diluted lysate is then assayed with each assay reagent.
The lysate is prepared as follows. Overnight cultures of clones to be tested are prepared in LB supplemented with 100 μg/ml AMP. The cultures are diluted 1:10 in M-9 minimal media supplemented with 1 mM IPTG, 100 μg/ml AMP and grown for 3 hours at 30° C. Forty-five μl of cells is mixed with 20 μl of Buffer A and frozen. The mixture is thawed, 175 μl of Buffer B added, and the resulting mixture diluted 1:10 in Buffer C. A regression of luminescence versus time of luciferin incubation is then calculated, and from this graph half-life is extrapolated. A longer half-life means that the mutant being tested is more resistant to luciferin breakdown products.

[8] = Robotic thermostability screen of LucPpl mutants: decrease of activity over 10 hours at screening temperature; type: physicochemical
Protocol: “Enzyme stability” was determined by the rate of activity loss from cell lysates over 10 hours. In successive rounds of evolution the incubation temperature of the lysates was increased.
To prepare luciferases having certain performance, a method for in vitro evolution of enzyme function, as described above, was employed. Briefly described, the method is a recursive process of generating random mutations and screening for desirable properties. It was originally developed primarily to increase the thermostability of luciferases, although other enzymological characteristics are also subject to optimization by the screening criteria. A slightly different strategy was used to achieve the properties described above since two related luciferases needed to be optimized concomitantly.
The luciferases from P. plagiophthalamus have 13 cysteines, which are potentially sensitive to oxidation. This is in contrast to the commonly used firefly luciferase, which has only 4 cysteines. To remove any cysteines that may limit enzyme stability, oligonucleotide-directed mutagenesis was used to randomize the cysteine codons. Three sets of oligonucleotides were used: non-conserved cysteines in regions of low sequence homology (positions 69, 114, 160, 194, 335, and 460), non-conserved cysteines in regions of higher sequence homology (positions 127, 213, 310, and 311), and highly conserved cysteines (positions 60, 80, and 388). […]
The random mutagenesis process was repeated using the best clone from the previous cycle of mutagenesis (Luc53-0G01). […] The discrepancy in measured activity of Luc53-0G01 in this cycle of mutagenesis compared to the previous cycle may be due to changes in the assay procedure and recalibration of the incubator temperature. It should be noted that the recorded thermostabilities from each stage of mutagenesis are calculated from robotic data using abbreviated assay procedures. The data are intended to indicate the relative stabilities of enzyme mutants when assayed in the same screen, rather than providing an accurate quantitation of thermostability.

firefly luciferase: the commonly used firefly luciferase
activity retained in lysates [1]: greater than 90%

B1: LucPpe2[T249M]: LucPpe2 firefly luciferase (Photuris pennsylvanica) with mutation Thr to Met at residue 249, SEQ ID NO:25 (protein)
chain: MEDKNILYGPEPFYPLADGTAGEQMFYALSRYADISGCIALTNAHTKENVLYEEFLKLSCRLAESFKKYGLKQNDTIAVCSENGLQFFLPLIASLYLGIIAAPVSDKYIERELIHSLGIVKPRIIFCSKNTFQKVLNVKSKLKYVETIIILDLNEDLGGYQCLNNFISQNSDINLDVKKFKPNSFNRDDQVALVMFSSGTTGVSKGVMLTHKNIVARFSHCKDPTFGNAINPTTAILTVIPFHHGFGMMTTLGYFTCGFRVALMHTFEEKLFLQSLQDYKVESTLLVPTLMAFFAKSALVEKYDLSHLKEIASGGAPLSKEIGEMVKKRFKLNFVRQGYGLTETTSAVLITPDTDVRPGSTGKIVPFHAVKVVDPTTGKILGPNETGELYFKGDMIMKGYYNNEEATKAIINKDGWLRSGDIAYYDNDGHFYIVDRLKSLIKYKGYQVAPAEIEGILLQHPYIVDAGVTGIPDEAAGELPAAGVVVQTGKYLNEQIVQNFVSSQVSTAKWLRGGVKFLDEIPKGSTGKIDRKVLRQMFEKHKSKL
modifications: Mutant luciferase
Thermostability Of Luciferase Activity (Half-Life In Hours) ([2]; 37° C.): 35.4 min | Thermostability Of Luciferase Activity (Half-Life In Hours) ([2]; 50° C.): 0.6 min | Thermostability Of Luciferase Activity (Half-Life In Hours) ([2]; Room Temperature (about 25° C.)): 6600 min | Km [3]: 0.32 µM | Km [4]: 18 µM | light produced in vivo when expressed in E. coli, relative to LucPpe2 [5]: approximately 5 fold

B2: Luc133-1B2: mutant luciferase, SEQ ID NO:44 (protein)
chain: MADKNILYGPEPFYPLEDGTAGEQMFDALSRYADIPGCIALTNAHTKENVLYEEFLKLSCRLAESFKKYGLKQNDTIAVCSENSLQFFLPVIASLYLGIIVAPVNDKYIERELIHSLGIVKPRIVFCSKNTFQKVLNVKSKLKSIETIIILDLNDDLGGYQCLNNFISQNSDSNLDVKKFKPYSFNRDDQVALIMFSSGTTGLPKGVMLTHKNIVARFSIAKDPTFGNAINPTSAILTVIPFHHGFGMMTTLGYFTCGFRVVLMHTFEEKLFLQSLQDYKVESTLLVPTLMAFLAKSALVEKYDLSHLKEIASGGAPLSKEIGEMVKKRFKLNFVRQGYGLTETTSAVLITPKGDAKPGSTGKIVPFHAVKVVDPTTGKILGPNEPGELYFKGPMIMKGYYNNEEATKAIIDNDGWLRSGDIAYYDNDGHFYIVDRLKSLIKYKGYQVAPAEIEGILLQHPYIVDAGVTGIPDEAAGELPAAGVVVQTGKYLNEQIVQDYVASQVSTAKWLRGGVIFLDEIPKGSTGKIDRKVLRQMLEKHTNG
modifications: Mutant luciferase
thermostability relative to Luc90-1B5 [6]: increased thermostability | half-life [6]: about 20 minutes | resistance to inhibitor relative to Luc90-1B5 [7]: increased resistance to inhibitor

B3: Luc146-1H2: mutant luciferase, SEQ ID NO:45 (protein)
chain: B2 chain with D34A, D155E, L193S, F367L, I516K
modifications: Mutant luciferase
thermostability relative to Luc90-1B5 [6]: increased thermostability | half-life [6]: about 62 minutes | resistance to inhibitor relative to Luc90-1B5 [7]: increased resistance to inhibitor

B4: Luc30-4B02: LucPplYG mutant, first cycle of random mutagenesis (protein)
chain: MMKREKNVIYGPEPLHPLEDLTAGEMLFRALRKHSHLPQALVDVVGDESLSYKEFFEATVLLAQSLHNCGYKMNDVVSICAENNTRFFIPVIAAWYIGMIVAPVNESYIPDELCKVMGISKPQIVFTTKNILNKVLEVQSRTNFIKRIIVLDTVENIHGCESLPNFISRYSDGNIANFKPLHFDPVEQVAAILCSSGTTGLPKGVMQTHQNICVRLIHALDPRAGTQLIPGVTVLVYLPFFHAFGFSITLGYFMVGLRVIMSRRFDPEAFLKAIQDYEVRSVINVPSVILFLSKSPLVDKYDLSSLRELCCGAAPLAKEVAEVAAKRLNLPGIRCGFGLTESTSANIHSLRDEFKPGSLGRVTPLMAAKIADRETGKALGPNQVGELCIKGPMVSKGYVNNVEATKEAIDDDGWLHSGDFGYYDEDEHFYVVDRYKELIKYKGSQVAPAELEEILLKNPCIRDVAVVGIPDLEAGELPSAFVVKQPGKEITAKEVYDYLAERVSHTKYLRGGVRFVDSIPRNVTGKITRKELLKQLLEKAGG
modifications: Mutant luciferase
notes: LucPplYG mutant, first cycle of random mutagenesis
decrease of activity over 10 hours ([8]; 41° C.): 63 fold | decrease of activity ([8]; 42° C.): greater than 2000 fold
